The values below come from patent US20240075161A1 (AUGUSTA UNIVERSITY RESEARCH INSTITUTE, published 2024).

Where no end group is shown, it is not given here. The star is where a group is joined. Biotin = O=C1N[C@H]2[C@H](CS[C@H]2CCCCC(=O)*)N1

This test deals with T1, CD206 on CD206-positive M2 macrophages (mouse) (mouse, UniProt Q61830 20-1456).
T1 construct: whole, on cells; No purified CD206 was used; also called CD206 receptor; CD206+ RAW264.7 cells
T1 sequence (looked up): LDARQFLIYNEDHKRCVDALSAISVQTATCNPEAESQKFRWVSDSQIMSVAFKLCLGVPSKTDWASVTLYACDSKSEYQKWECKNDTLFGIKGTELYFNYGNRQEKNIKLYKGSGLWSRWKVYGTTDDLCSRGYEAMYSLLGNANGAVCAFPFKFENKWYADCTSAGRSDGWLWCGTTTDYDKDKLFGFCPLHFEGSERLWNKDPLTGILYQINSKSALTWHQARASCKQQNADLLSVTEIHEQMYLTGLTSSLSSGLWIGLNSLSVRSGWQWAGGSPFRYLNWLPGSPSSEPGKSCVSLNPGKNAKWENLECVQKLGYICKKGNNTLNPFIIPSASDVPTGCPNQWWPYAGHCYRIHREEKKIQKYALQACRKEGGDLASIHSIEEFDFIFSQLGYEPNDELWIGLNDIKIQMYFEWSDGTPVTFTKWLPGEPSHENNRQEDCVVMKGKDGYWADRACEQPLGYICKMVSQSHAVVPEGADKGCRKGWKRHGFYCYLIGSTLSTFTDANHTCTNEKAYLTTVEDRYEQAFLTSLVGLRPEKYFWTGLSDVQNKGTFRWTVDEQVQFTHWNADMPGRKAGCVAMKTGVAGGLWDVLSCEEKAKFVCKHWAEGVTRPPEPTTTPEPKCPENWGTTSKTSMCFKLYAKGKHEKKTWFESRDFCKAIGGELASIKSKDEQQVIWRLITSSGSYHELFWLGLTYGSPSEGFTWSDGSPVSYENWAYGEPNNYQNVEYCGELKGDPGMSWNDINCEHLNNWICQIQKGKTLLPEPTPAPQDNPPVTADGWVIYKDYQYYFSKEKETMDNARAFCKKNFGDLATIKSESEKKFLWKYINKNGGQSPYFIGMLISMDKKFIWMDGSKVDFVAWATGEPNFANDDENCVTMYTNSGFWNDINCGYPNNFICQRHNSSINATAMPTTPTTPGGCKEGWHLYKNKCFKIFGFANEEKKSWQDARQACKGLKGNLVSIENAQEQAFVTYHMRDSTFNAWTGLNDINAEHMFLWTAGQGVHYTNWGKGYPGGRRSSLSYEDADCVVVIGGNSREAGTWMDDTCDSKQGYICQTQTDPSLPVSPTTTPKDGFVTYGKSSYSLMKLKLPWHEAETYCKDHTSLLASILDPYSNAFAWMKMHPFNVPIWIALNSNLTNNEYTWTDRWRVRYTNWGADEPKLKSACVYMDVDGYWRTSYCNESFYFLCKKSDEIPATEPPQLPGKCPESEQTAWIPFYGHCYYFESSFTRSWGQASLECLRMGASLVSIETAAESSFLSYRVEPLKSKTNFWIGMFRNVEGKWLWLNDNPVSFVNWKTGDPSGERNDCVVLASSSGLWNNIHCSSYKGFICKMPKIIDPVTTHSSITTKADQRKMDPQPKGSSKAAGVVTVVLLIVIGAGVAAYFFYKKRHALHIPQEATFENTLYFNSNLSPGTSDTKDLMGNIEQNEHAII
Nature of the test: immunofluorescence of tumor, spleen and lung sections of 4T1 tumor-bearing mice after i.v. injection.

B1: Biotinylated precision peptide (Biotin-CSPGAKVRC), rhodamine-labeled (peptide)
peptide: Biotin-CSPGAKVRC
modifications: cysteine pairing not given here; also: complex with rhodamine-tagged streptavidin
notes: Synthetic peptide (GeneScript); injected i.v. as a complex with rhodamine-streptavidin; also called Rhodamine red-labeled targeting peptide; rhodamine-labeled precision peptide
Regarding B1, the binding result was “binds”.
